{
  "source": "paper PMC1298930",
  "origin": "cited, not measured here",
  "biological_target": "PCNA2 (Sulfolobus solfataricus) (UniProt Q97Z84)",
  "sequence (Q97Z84 whole entry)": "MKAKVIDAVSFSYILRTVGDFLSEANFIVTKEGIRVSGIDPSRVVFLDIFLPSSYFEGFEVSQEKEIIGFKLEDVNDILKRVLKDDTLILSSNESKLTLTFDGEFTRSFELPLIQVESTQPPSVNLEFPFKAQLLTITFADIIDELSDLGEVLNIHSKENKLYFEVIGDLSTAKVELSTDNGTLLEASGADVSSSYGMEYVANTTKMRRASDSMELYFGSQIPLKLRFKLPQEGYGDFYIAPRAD",
  "data": [
    {"substance": "PCNA1 (from UniProt P57766)", "values": [
      {"measurement": "Kd", "value": 12, "unit": "pM"}
    ]}
  ]
}
